Measured values published in patent US20230313187A1, “MODIFICATIONS OF MAMMALIAN CELLS USING ARTIFICIAL MICRO-RNA TO ALTER THEIR PROPERTIES AND THE COMPOSITIONS OF THEIR PRODUCTS” (DNA TWOPOINTO INC., priority 2020, published 2023).

B1: SEQ ID NO: 598: four-hairpin amiRNA, guides SEQ ID NOs 95, 97, 96, 98 to Cricetulus griseus interferon receptor subunit 1 mRNA (nucleic acid)
chain: ATCTGATCTTCTGAAGAAAATATATTTCTTTTTATTCATAGCTCTTAACTAGTGGTGATAGCAATGTCAGCAGTGCCTTAAAATAACACACAAGAGCCATGTGAAGCCACAGATGATGGCTCTTGCGTGTTATTTTCAAGTAAGGTTGACCATACTCTACTCTAGTTATATTCTTTAGGCACGAATGTGTGTTTAAAAAAAATAAAAACTAGTGGTGATAGCAATGTCAGCAGTGCCTTTAAACAGTAAGTAGTCTCTGGGTGAAGCCACAGATGCCAGAGACTAATTACTGTTTACAAGTAAGGTTGACCATACTCTACTCTAGAGTTGTGTTTTAATGTATATTAATGTTACTAATGTGTTTACTAGTGGTGATAGCAATGTCAGCAGTGCCTTTGGGTGTTAATAAAAAGGCAGGTGAAGCCACAGATGCTGCCTTTTTCTTAACACCCACAAGTAAGGTTGACCATACTCTACTCTAGGTTATTTTTAGTATGATTCTGTAAAAATGAATTAATACTAACTAGTGGTGATAGCAATGTCAGCAGTGCCTTTCATTTTGACATACATACTTGGTGAAGCCACAGATGCAAGTATGTACGTCAAAATGACAAGTAAGGTTGACCATACTCTACTCTAGTCAGTTTTATTGATAGTCTTTTCAGTATTATTGATAATCTT
B2: SEQ ID NO: 599: four-hairpin amiRNA, guides SEQ ID NOs 103, 104, 102, 105 to Cricetulus griseus interferon receptor subunit 2 mRNA (nucleic acid)
chain: ATCTGATCTTCTGAAGAAAATATATTTCTTTTTATTCATAGCTCTTAACTAGTGGTGATAGCAATGTCAGCAGTGCCTAAGACTATCAGCAAGAACCAGGGTGAAGCCACAGATGCCTGGTTCTTACTGATAGTCTCAAGTAAGGTTGACCATACTCTACTCTAGTTATATTCTTTAGGCACGAATGTGTGTTTAAAAAAAATAAAAACTAGTGGTGATAGCAATGTCAGCAGTGCCTTTGAAGATAACTTTGTCCCCGGGTGAAGCCACAGATGCCGGGGACAACGTTATCTTCACAAGTAAGGTTGACCATACTCTACTCTAGAGTTGTGTTTTAATGTATATTAATGTTACTAATGTGTTTACTAGTGGTGATAGCAATGTCAGCAGTGCCTTAAACAACAATGGATCCCCAAAGTGAAGCCACAGATGTTTGGGGATCAATTGTTGTTTCAAGTAAGGTTGACCATACTCTACTCTAGGTTATTTTTAGTATGATTCTGTAAAAATGAATTAATACTAACTAGTGGTGATAGCAATGTCAGCAGTGCCTTTGCTCATGATTGTGAACCAAAGTGAAGCCACAGATGTTTGGTTCACCATCATGAGCACAAGTAAGGTTGACCATACTCTACTCTAGTCAGTTTTATTGATAGTCTTTTCAGTATTATTGATAATCTT

Tests used:
[1] = test system: Cricetulus griseus interferon receptor subunit 1 mRNA; assay: Expression of human interferon beta from CHO cells (ELISA), amiRNA to interferon receptor subunit 1; format: cell-based; settings: for Titer: 10-day fed batch
Text: One multi-hairpin amiRNA, with nucleotide sequence SEQ ID NO: 598, comprised four hairpins; the first hairpin comprised a guide strand with nucleotide sequence SEQ ID NO: 95, immediately followed by a loop with nucleotide sequence SEQ ID NO: 241 and passenger strand with nucleotide sequence SEQ ID NO: 180, the second hairpin comprised a guide strand with nucleotide sequence SEQ ID NO: 97, immediately followed by a loop with nucleotide sequence SEQ ID NO: 241 and passenger strand with nucleotide sequence SEQ ID NO: 182, the third hairpin comprised a guide strand with nucleotide sequence SEQ ID NO: 96, immediately followed by a loop with nucleotide sequence SEQ ID NO: 241 and a passenger strand with nucleotide sequence SEQ ID NO: 181, the fourth hairpin comprised a guide strand with nucleotide sequence SEQ ID NO: 98, immediately followed by a loop with nucleotide sequence SEQ ID NO: 241 and a passenger strand with nucleotide sequence SEQ ID NO: 183. Each of these four guide strand sequences was a 22 base sequence that was an exact reverse complement of a different region within the Cricetulus griseus interferon receptor subunit 1 mRNA (with nucleotide sequence SEQ ID NO: 19. Each passenger strand sequence was complementary to its corresponding guide strand sequence, except that the bases in the passenger strand sequences corresponding to the 5′ base of the guide strand and the twelfth base of the guide strand were changed to be non-complementary.
(§1) Each of the five polynucleotides was a transposon which further comprised a left end comprising a 5′-TTAA-3′ target sequence immediately followed by an ITR with SEQ ID NO: 423 (which is an embodiment of SEQ ID NO: 421) and additional sequence with SEQ ID NO: 417 and a right end comprising SEQ ID NO: 419 immediately followed by an ITR with SEQ ID NO: 424 (which is an embodiment of SEQ ID NO: 422) immediately followed by a 5′-TTAA-3′ target sequence. Each transposon further comprised a gene encoding a glutamine synthetase selectable marker. […] Each transposon further comprised the same promoter operably linked to an open reading frame encoding human interferon beta. […]
(§2) Transposons were co-transfected with mRNA encoding transposase with polypeptide sequence SEQ ID NO: 502 into a CHO host lacking a functional glutamine synthetase gene. […] Interferon beta levels in the culture supernatant were measured using an ELISA assay.
(§3) Table 11. […] Transposons for the expression of human interferon beta were constructed, transfected and expressed as described in Section 6.4.1. The amiRNA SEQ ID NO is shown in column A. Following a 10-day fed batch of duplicate cultures for each sample, the concentration of interferon was measured by ELISA. Measured interferon concentrations in culture supernatants are show in columns B and C. […]

[2] = test system: Cricetulus griseus interferon receptor subunit 2 mRNA; assay: Expression of human interferon beta from CHO cells (ELISA), amiRNA to interferon receptor subunit 2; format: cell-based; settings: for Titer: 10-day fed batch
Text: One multi-hairpin amiRNA, with nucleotide sequence SEQ ID NO: 599, comprised four hairpins; the first hairpin comprised a guide strand with nucleotide sequence SEQ ID NO: 103, immediately followed by a loop with nucleotide sequence SEQ ID NO: 241 and passenger strand with nucleotide sequence SEQ ID NO: 188; the second hairpin comprised a guide strand with nucleotide sequence SEQ ID NO: 104, immediately followed by a loop with nucleotide sequence SEQ ID NO: 241 and passenger strand with nucleotide sequence SEQ ID NO: 189; the third hairpin comprised a guide strand with nucleotide sequence SEQ ID NO: 102, immediately followed by a loop with nucleotide sequence SEQ ID NO: 241 and a passenger strand with nucleotide sequence SEQ ID NO: 187; the fourth hairpin comprised a guide strand with nucleotide sequence SEQ ID NO: 105, immediately followed by a loop with nucleotide sequence SEQ ID NO: 241 and a passenger strand with nucleotide sequence SEQ ID NO: 190. Each of these four guide strand sequences was a 22 base sequence that was an exact reverse complement of a different region within the Cricetulus griseus interferon receptor subunit 2 mRNA (with nucleotide sequence SEQ ID NO: 20). Each passenger strand sequence was complementary to its corresponding guide strand sequence, except that the bases in the passenger strand sequences corresponding to the 5′ base of the guide strand and the twelfth base of the guide strand were changed to be non-complementary.
as §1, §2, §3

[3] = control transposon expressed 48 μg/ml
[4] = interferon beta in supernatant, first of duplicate cultures
[5] = interferon beta, second of duplicate cultures

| Molecule | Average Titer ([1]; average of duplicate cultures) [µg/mL] | interferon beta expression compared with the control transposon [1, 3] | Titer [1, 4] [µg/mL] | Titer [1, 5] [µg/mL] | Average Titer ([2]; average of duplicate cultures) [µg/mL] | interferon beta expression compared with the control transposon [2, 3] | Titer [2, 4] [µg/mL] | Titer [2, 5] [µg/mL] |
| --- | --- | --- | --- | --- | --- | --- | --- | --- |
| B1 | 34.5 | a small decrease in interferon beta expression | 22.8 | 46.1 |  |  |  |  |
| B2 |  |  |  |  | 99.3 | as much as twice the expression levels of interferon beta as the control transposon | 92.9 | 105.7 |
